Assay results from paper PMC4841774 (eLife, 2016).

Experiments:
[1] = molecular target: MTA1-A (residues 162–354) (human) (UniProt Q13330); experiment: SEC-MALS; gel-filtrated co-expressed complexes at 1 mg/ml reapplied to Superdex S200; Optilab T-rEX and DAWN HELEOS detectors
[2] = molecular target: MTA1-B (residues 162–546) (human) (UniProt Q13330); experiment: affinity purification with mass spectrometry; Flag-tagged MTA1 fragments co-transfected with HDAC1 in HEK293F; complexes purified on FLAG resin; endogenous RBBP4/7 identified by peptide mass spectrometry; ratio by densitometry of the SDS-PAGE gel (ImageJ)
[3] = molecular target: MTA1-C (residues 162–715) (human) (UniProt Q13330); experiment: as above
[4] = molecular target: T1, HDAC1 (residues 1–482), untagged (human, UniProt Q13547 1-482); experiment: SAXS; purified co-expressed complexes, 1 to 5 mg/ml, 25°C, Diamond B21; ab initio envelopes; conditions: both partners purified
T1 construct: Histone deacetylase 1 (HDAC1), residues 1-482; source: HEK293F, co-transfected with MTA1 fragments, co-purified (FLAG resin through MTA1, TEV elution, Superdex S200)

[5] = molecular target: T2, RBBP4 (residues 1–425), untagged (human, UniProt Q09028 1-425); experiment: SEC-MALS; gel-filtrated co-expressed complexes at 1 mg/ml reapplied to Superdex S200; Optilab T-rEX and DAWN HELEOS detectors; conditions: both partners purified
T2 construct: also called RbAp48; source: HEK293F, co-transfected with MTA1 fragments, co-purified (FLAG resin through MTA1, TEV elution, Superdex S200)

[6] = molecular target: the molecule itself; experiment: as above

T2 sequence (Q09028 whole entry, the tested form may be a part): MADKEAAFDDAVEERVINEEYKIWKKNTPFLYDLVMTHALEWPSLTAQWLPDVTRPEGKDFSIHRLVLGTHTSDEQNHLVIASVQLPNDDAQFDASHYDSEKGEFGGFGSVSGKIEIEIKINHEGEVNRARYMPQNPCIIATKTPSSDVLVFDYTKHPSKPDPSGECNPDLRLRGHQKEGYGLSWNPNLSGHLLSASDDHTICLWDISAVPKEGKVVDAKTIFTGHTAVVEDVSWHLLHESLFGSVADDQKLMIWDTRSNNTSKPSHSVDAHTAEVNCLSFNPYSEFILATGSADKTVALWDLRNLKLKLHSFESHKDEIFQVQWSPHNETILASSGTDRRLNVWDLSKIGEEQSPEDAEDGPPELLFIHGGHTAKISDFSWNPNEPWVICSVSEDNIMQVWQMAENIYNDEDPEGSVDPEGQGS
T1 sequence (Q13547 whole entry, the tested form may be a part): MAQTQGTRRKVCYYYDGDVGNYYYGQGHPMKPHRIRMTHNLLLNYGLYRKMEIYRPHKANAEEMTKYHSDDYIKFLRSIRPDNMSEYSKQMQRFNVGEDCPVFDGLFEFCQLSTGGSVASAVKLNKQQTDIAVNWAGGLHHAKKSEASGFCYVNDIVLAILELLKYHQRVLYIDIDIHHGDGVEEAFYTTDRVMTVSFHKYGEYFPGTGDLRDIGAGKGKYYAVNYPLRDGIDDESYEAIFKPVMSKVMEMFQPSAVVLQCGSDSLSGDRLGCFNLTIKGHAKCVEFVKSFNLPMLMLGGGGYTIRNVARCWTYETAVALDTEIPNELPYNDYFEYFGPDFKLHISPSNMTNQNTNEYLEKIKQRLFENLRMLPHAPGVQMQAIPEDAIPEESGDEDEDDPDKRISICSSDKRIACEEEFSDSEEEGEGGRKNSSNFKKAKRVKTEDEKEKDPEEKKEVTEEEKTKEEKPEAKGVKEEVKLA

MTA1-A (residues 162–354) (from UniProt Q13330 162-354) (domain or fragment)
stoichiometry N (copies in the complex) [1]: 2

endogenous RBBP4/7 (from UniProt Q09028 1-425) (natural protein)
ratio HDAC1:RBBP4/7 (gel densitometry) (RBBP4/7 per HDAC1) [2]: 1
ratio HDAC1:RBBP4/7 (gel densitometry) (RBBP4/7 per HDAC1) [3]: 1.5

B1: MTA1-B (residues 162–546) (domain or fragment, human, UniProt Q13330 162-546, looked up)
chain: ADKGEIRVGNRYQADITDLLKEGEEDGRDQSRLETQVWEAHNPLTDKQIDQFLVVARSVGTFARALDCSSSVRQPSLHMSAAAASRDITLFHAMDTLHKNIYDISKAISALVPQGGPVLCRDEMEEWSASEANLFEEALEKYGKDFTDIQQDFLPWKSLTSIIEYYYMWKTTDRYVQQKRLKAAEAESKLKQVYIPNYNKPNPNQISVNNVKAGVVNGTGAPGQSPGAGRACESCYTTQSYQWYSWGPPNMQCRLCASCWTYWKKYGGLKMPTRLDGERPGPNRSNMSPHGLPARSSGSPKFAMKTRQAFYLHTTKLTRIARRLCREILRPWHAARHPYLPINSAAIKAECTARLPEASQSPLVLKQAVRKPLEAVLRYLETHPR
notes: Captured on FLAG resin by the tag, then released with TEV; Two copies in the dimeric MTA1-B:HDAC1:RBBP4 complex by MALS; not shown: His10, N-terminal, cleaved; Flag3, N-terminal, cleaved
binding result [4]: binds
binding result [5]: binds
stoichiometry N [6]: 2 copies in the complex
